Measurements as given in PMC7090385 (Cell Reports, 2020).
Blank lines part the entries; values can stand above or below the binder they belong to.

Experiments:
[1] = biological target: T1, SID2p peptide (APOL1 G332-L392, WT) (human); assay: SPR
T1 peptide: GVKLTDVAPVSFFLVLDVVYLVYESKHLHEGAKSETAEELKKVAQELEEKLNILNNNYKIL

[2] = biological target: recombinant NCS-1 (not myristoylated) (UniProt P62166 1-190, biotin (EZ-Link NHS-PEG4-biotin) where bound to the streptavidin sensor); assay: BLI
Sequence of recombinant NCS-1 (not myristoylated) (P62166 whole entry): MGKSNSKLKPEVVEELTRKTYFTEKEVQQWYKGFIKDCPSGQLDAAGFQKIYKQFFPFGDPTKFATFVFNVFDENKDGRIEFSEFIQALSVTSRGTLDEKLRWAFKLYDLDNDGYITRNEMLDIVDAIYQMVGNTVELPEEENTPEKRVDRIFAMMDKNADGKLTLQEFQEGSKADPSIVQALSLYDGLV

binding result [1]: binds
B1: LZ1p peptide (APOL1 L88-K125) (peptide)
peptide: LTDNEAWNGFVAAAELPRNEADELRKALDNLARQMIMK

Kd [2]: 36.5 ± 2.6 nM
B2: recombinant APOL3 (natural protein)
chain: MDSEKKRFTEEATKYFRERVSPVHLQILLTNNEAWKRFVTAAELPRDEADALYEALKKLRTYAAIEDEYVQQKDEQFREWFLKEFPQVKRKIQESIEKLRALANGIEEVHRGCTISNVVSSSTGAASGIMSLAGLVLAPFTAGTSLALTAAGVGLGAASAVTGITTSIVEHSYTSSAEAEASRLTATSIDRLKVFKEVMRDITPNLLSLLNNYYEATQTIGSEIRAIRQARARARLPVTTWRISAGSGGQAERTIAGTTRAVSRGARILSATTSGIFLALDVVNLVYESKHLHEGAKSASAEELRRQAQELEENLMELTQIYQRLNPCHTH
modifications: biotin (EZ-Link NHS-PEG4-biotin), only where APOL3 was the bound partner (Figure 5A)
